In patent publication US20160159869A1 (NORTHWESTERN UNIVERSITY, published 2016):
C16 = C16 alkyl tail covalently attached at the N-terminus

B1: diluent PA, C16-V3A3E3-COOH (peptide)
peptide: C16-VVVAAAEEE-OH
notes: In SPR it was used as a solution at pH 8.4; In the capture assay it was a 1 wt % nanofiber gel formed with CaCl2; also called diluent PA gel

Key:
[1] = biological target: Recombinant human BMP-2 (Medtronic Sofamor Danek) (human) (UniProt P12643); test: capture of BMP-2 by a 20 µL PA gel from medium containing 25 ng BMP-2, 37 °C, 4 h, sandwich ELISA of the medium
[2] = biological target: T1, Human recombinant BMP-2 with hexahistidine-tag fused at the C-terminus (AdipoGen) (human, UniProt P12643 283-396); test: SPR (Biacore 3000): His-BMP-2 captured on Ni2+-NTA chip, PA injected at pH 8.4. Fit with the 2:1 binding model. Column ka.
T1 construct: Immobilised on a Ni2+-NTA chip for SPR; also called His-BMP-2; hexahistidine-tagged BMP-2
T1 sequence: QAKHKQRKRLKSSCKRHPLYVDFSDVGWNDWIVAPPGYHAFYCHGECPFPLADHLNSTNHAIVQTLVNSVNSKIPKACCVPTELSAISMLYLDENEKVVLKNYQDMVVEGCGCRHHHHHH
Procedure: (§1) The SPR measurements were performed using a Biacore 3000 instrument (GE Healthcare, Pittsburgh, Pa.) equipped with a NTA Sensor Chip (GE Healthcare) at 25° C. HBS-P eluent buffer and HBS-EP dispenser buffer were purchased from GE Healthcare. NiCl 2 solution (500 μM in eluent buffer), elution buffer (300 mM imidazole and 500 mM NaCl in water), and regeneration buffer (10 mM HEPES, 150 mM NaCl, 0.005% polysorbate 20, 350 mM EDTA at pH 7.4) were prepared according to Biacore specifications. Human recombinant BMP-2 with hexahistidine-tag fused at the C-terminus (AdipoGen, San Diego, Calif.) was initially reconstituted in PBS at 20 μg/ml, and diluted to 500 nM in eluent buffer.
(§2) Ni²⁺ was first loaded on the NTA chip for 5 min at a flow rate of 20 μl/min, and then His-BMP-2 for 1.25 min at 4 μl/min. Afterwards, each PA sample was injected for 2 min at […], followed by 5 min dissociation at […]. […] To compare binding affinity of the PAs, the sensograms were processed and analyzed with BIAevaluation 4.1 software. The sensogram from blank injection was subtracted from the PA sensograms, and the apparent equilibrium dissociation constant KD was determined using 2:1 binding model, which assumes bivalent analyte interaction with two dissociation constants kd,1 and kd,2, where kd,1 is more dominant.

[3] = biological target: T1, Human recombinant BMP-2 with …; test: SPR (Biacore 3000): His-BMP-2 captured on Ni2+-NTA chip, PA injected at pH 8.4. Fit with the 2:1 binding model. Column kd,1 (major dissociation rate constant).
Procedure: as §1, §2

[4] = biological target: T1, Human recombinant BMP-2 with …; test: SPR (Biacore 3000), His-BMP-2 immobilised on Ni2+-NTA chip, PA injected at pH 8.4, 2:1 binding model, KD from the major dissociation rate and ka; diluent PA (no binding segment), prepared at pH 8.4
Procedure: As a control, the BMP-2-binding PA ([…], pH 7.4) was injected to a bare NTA-dextran chip, and we observed non-specific binding of the PA to the surface (FIG. 4). It is contemplated that the fibrillar nanostructures can be entangled to the NTA-dextran surface. To circumvent this, the BMP-2-binding PA was prepared at pH 8.4, where more glutamic acid residues are deprotonated to induce greater electrostatic repulsion between the PA molecules, and sonicated the solution to further break up the supramolecular assembly. […] The best fit was obtained by using the 2:1 binding model, which had two dissociation constants: a major dissociation constant (k_{d,1}) and a minor dissociation constant (k_{d,2}) with the ratio of their contributions (R₁/R₂).
as §1, with “Human recombinant BMP-2 with hexahistidine-tag fused at the C-terminus (AdipoGen, San Diego, Calif.) was initially reconstituted in PBS at 20 μg/ml, and diluted to 500 nM in eluent buffer.” left out

Molecule | amount of BMP-2 bound on the gel after 4 h [1] [ng] | kon [2] [M⁻¹ s⁻¹] | koff [3] [s⁻¹] | Kd [4] [nM]
diluted BMP-2-binding PA (D-BMP2b-PA), co-assembly of BMP2b-PA and diluent PA at 1:1 weight ratio | 15.5 | – | – | –
B1 | – | 5300 | 0.011 | 2100
